Experimental findings from patent US20230313187A1, “MODIFICATIONS OF MAMMALIAN CELLS USING ARTIFICIAL MICRO-RNA TO ALTER THEIR PROPERTIES AND THE COMPOSITIONS OF THEIR PRODUCTS” (DNA TWOPOINTO INC., priority 2020, published 2023) are described below.

Common to all, as to assay type: cell-based
Data set [1] deals with Cricetulus griseus Neu2 mRNA. Nature of the data set: Sialylation of an Fc fusion protein from CHO cells with Neu2-targeting amiRNA (capillary isoelectric focusing). The conditions noted are these: 14 day fed-batch; Fc fusion to a growth factor receptor; FIG. 6B vs reference standard. The text has this: The multi-hairpin amiRNA was cloned into a piggyBac-like transposon to the 3′ of a spacer polynucleotide with nucleotide sequence SEQ ID NO: 280, and operably linked to a PGK promoter with nucleotide sequence SEQ ID NO: 385. The nucleotide sequence of the multi-hairpin amiRNA gene is given as SEQ ID NO: 593. The piggyBac-like transposon further comprised a selectable marker conferring resistance to puromycin with amino acid sequence SEQ ID NO: 302. The piggyBac-like transposon further comprised a target sequence 5′-TTAA-3′ immediately followed by an ITR with nucleotide sequence SEQ ID NO: 427, immediately followed by further transposon end sequences with nucleotide sequence SEQ ID NO: 425. The piggyBac-like transposon further comprised nucleotide sequence SEQ ID NO: 426, immediately followed by a second ITR with nucleotide sequence SEQ ID NO: 428, immediately followed by the target sequence 5′-TTAA-3′. […]
After the transfected cell pools had recovered to >95% viability, we tested their ability to produce sialylated protein. […] Protein was purified from the culture supernatant using protein A affinity chromatography, reduced with dithiothreitol, and analyzed by capillary isoelectric focusing (cIEF). […]

Data set [2] concerns Cricetulus griseus alpha-(1,6)-fucosyl transferase (FUT8) mRNA. Put plainly: CHO pool with amiRNA as host for transient production of afucosylated antibodies. The conditions noted are these: 7-day transient culture; amiRNA linked to EF1 promoter; FIG. 5B. The text has this: The multi-hairpin amiRNA with nucleotide sequence SEQ ID NO: 194 comprised three hairpins with guides complementary to the mRNA for Cricetulus griseus alpha-(1,6)-fucosyl transferase (FUT8), as described in Section 6.1.1.1. The multi-hairpin amiRNA sequence was placed to the 3′ of an open reading frame encoding a red fluorescent protein (with nucleotide sequence SEQ ID NO: 279) and followed by a rabbit globin polyadenylation sequence. The multi-hairpin amiRNA gene was cloned into a Bombyx transposon vector in which it was operably linked to an EF1 promoter (with nucleotide sequence SEQ ID NO: 314). […] It further comprised an open reading frame encoding puromycin selectable marker with polypeptide sequence SEQ ID NO: 302. […]
Transposons were co-transfected with mRNA encoding transposase with polypeptide sequence SEQ ID NO: 502 into a CHO cell line expressing no heterologous antibody sequences. […] Protein was purified from the culture supernatant using protein A affinity chromatography, reduced with dithiothreitol, and analyzed on an Agilent QTOF mass spectrometer. […]

Data set [3] has the same test system. Put plainly: Antibody titer and fucosylation with different numbers of amiRNA hairpins in the 3' UTR of the glutamine synthetase selectable marker. The source says:
One- two- or three-hairpin amiRNAs were incorporated into the 3′ UTR of a glutamine synthetase selectable marker on a transposon. The multi-hairpin amiRNA with nucleotide sequence SEQ ID NO: 194 comprised three hairpins as described in Section 6.1.1.1.
These amiRNA sequences were placed to the 3′ of an open reading frame encoding a glutamine synthetase protein (with polypeptide sequence SEQ ID NO: 307) and followed by a human globin polyadenylation sequence. The amiRNA genes were cloned into a transposon vector in which they were operably linked to a Pol II promoter. The transposon further comprised genes encoding an antibody with mature light chain polypeptide sequence SEQ ID NO: 286 and mature heavy chain polypeptide sequence SEQ ID NO: 288. The transposon further comprised a left end comprising a 5′-TTAA-3′ target sequence immediately followed by an ITR with nucleotide sequence SEQ ID NO: 423 (which is an embodiment of SEQ ID NO: 421) and additional nucleotide sequence SEQ ID NO: 417 and a right end comprising nucleotide sequence SEQ ID NO: 419 immediately followed by an ITR with nucleotide sequence SEQ ID NO: 424 (which is an embodiment of SEQ ID NO: 422) immediately followed by a 5′-TTAA-3′ target sequence. The transposon was configured so that the multi-hairpin amiRNA, the glutamine synthetase gene and the genes for both antibody chains, as well as all necessary operably linked control elements were transposable by a corresponding transposase.
Transposons were co-transfected with mRNA encoding transposase with polypeptide sequence SEQ ID NO: 472 into a CHO cell line with no functional glutamine synthetase gene. The pool of transfected cells were grown in the absence of glutamine added to the media until their viability reached 95%. They were then grown in a 14 day fed-batch using Sigma Advanced Fed Batch media. Protein was purified from the culture supernatant using protein A affinity chromatography, reduced with dithiothreitol, and analyzed on an Agilent QTOF mass spectrometer. We integrated the area under the peaks at 50,456 Da (corresponding to the heavy chain modified by G0: the conserved heptasaccharide core composed of 2 N-acetylglucosamine, 3 mannose and 2 other N-acetylglucosamine residues that are β-1,2 linked to α-6 mannose and α-3 mannose, forming two arms) and 50,602 (corresponding to the heavy chain modified by G0F: the conserved heptasaccharide core plus a fucose residue) to calculate the relative proportion of fucosylated and afucosylated antibody.
Table 5. Inhibition of antibody fucosylation with different numbers of amiRNA hairpins. Transposons were constructed as described in Section 6.1.2.1. The SEQ ID NO of the amiRNA gene including the glutamine synthetase ORF and the globin polyA sequence is given in column A. The Pol II promoter shown in column B was operably linked to the amiRNA whose SEQ ID NO is shown in column C. The amiRNA comprised the number of hairpins shown in column D. Following a 14-day fed batch antibody production run, the culture supernatant contained the concentration of antibody shown in column E. The percentage of antibody that was afucosylated is shown in column F, the percentage that was fucosylated is shown in column G. BDL=below detection limit.

The test system is the same in data set [4]. Put plainly: Antibody titer and fucosylation with multi-hairpin amiRNA in the GS 3' UTR driven by different promoters and inhibitory 5' UTRs. As to conditions: 14 day fed-batch. The text has this:
The three-hairpin amiRNA with nucleotide sequence SEQ ID NO: 194 was incorporated into the 3′ UTR of a glutamine synthetase selectable marker on a transposon. The amiRNA sequence was placed to the 3′ of an open reading frame encoding a glutamine synthetase protein with polypeptide sequence SEQ ID NO: 307 and was followed by a human globin polyadenylation sequence. The amiRNA gene was cloned into different transposon vectors in which it was operably linked to different Pol II promoters. Each transposon further comprised genes encoding an antibody with mature light chain polypeptide sequence SEQ ID NO: 286 and mature heavy chain polypeptide sequence SEQ ID NO: 288. […]
Transposons were co-transfected with mRNA encoding transposase with polypeptide sequence SEQ ID NO: 472 into a CHO cell line with no functional glutamine synthetase gene. […] Protein was purified from the culture supernatant using protein A affinity chromatography, reduced with dithiothreitol, and analyzed on an Agilent QTOF mass spectrometer. […]

B1: SEQ ID NO: 568: three-hairpin amiRNA, guides SEQ ID NOs 92, 91, 90 complementary to Cricetulus griseus Neu2 mRNA (nucleic acid)
chain: ATCTGATCTTCTGAAGAAAATATATTTCTTTTTATTCATAGCTCTTAACTAGTGGTGATAGCAATGTCAGCAGTGCCTATGAAGTCTATGAAGAGTCAGGGTGAAGCCACAGATGCCTGACTCTTAATAGACTTCACAAGTAAGGTTGACCATACTCTACTCTAGAGTTGTGTTTTAATGTATATTAATGTTACTAATGTGTTTACTAGTGGTGATAGCAATGTCAGCAGTGCCTTACAAGTTTACTCACTACCTGGGTGAAGCCACAGATGCCAGGTAGTGCGTAAACTTGTCAAGTAAGGTTGACCATACTCTACTCTAGGTTATTTTTAGTATGATTCTGTAAAAATGAATTAATACTAACTAGTGGTGATAGCAATGTCAGCAGTGCCTTAATTTATTAAGACTCATCCAAGTGAAGCCACAGATGTTGGATGAGTATTAATAAATTCAAGTAAGGTTGACCATACTCTACTCTAGTCAGTTTTATTGATAGTCTTTTCAGTATTATTGATAATCTT
As to B1, in data set [1], the “sialylation of the produced protein (cIEF glycoform peaks)” value is given as “substantially reduces the removal of sialic acid from proteins produced by CHO cells”.

B2: SEQ ID NO: 194: three-hairpin amiRNA, guides SEQ ID NOs 23, 24, 25 to Cricetulus griseus FUT8 mRNA, unstructured sequences between hairpins (nucleic acid)
chain: ATCTGATCTTCTGAAGAAAATATATTTCTTTTTATTCATAGCTCTTAACTAGTGGTGATAGCAATGTCAGCAGTGCCTGGAAAAACATCCATTCTCATTCGTGAAGCCACAGATGGAATGAGAATAGATGTTTTTCAAAGTAAGGTTGACCATACTCTACTCTAGTTATATTCTTTAGGCACGAATGTGTGTTTAAAAAAAATAAAAACTAGTGGTGATAGCAATGTCAGCAGTGCCTTTAAATTACATAATGTGGCAGTGTGAAGCCACAGATGACTGCCACATCATGTAATTTACAAGTAAGGTTGACCATACTCTACTCTAGAGTTGTGTTTTAATGTATATTAATGTTACTAATGTGTTTACTAGTGGTGATAGCAATGTCAGCAGTGCCTTATTTTACTGTGCATGGGCTTGGTGAAGCCACAGATGCAAGCCCATGAACAGTAAAATCAAGTAAGGTTGACCATACTCTACTCTAGTCAGTTTTATTGATAGTCTTTTCAGTATTATTGATAATCTT
Turning to B2, the “antibody fucosylation (G0F peak)” value in data set [2] is listed as “produced only afucosylated antibodies”. For the same molecule, in data set [3] (CMV and EEF2 promoter operably linked to the amiRNA), the “fucosylation of the antibody” value was “completely eliminated fucosylation of the antibody”. In addition, the “antibody titer in the culture supernatant” value is 163 mg/L in data set [3] (CMV promoter) and 443 mg/L in data set [3] (EEF2 promoter). The antibody titer was 835 mg/L in data set [3] (weaker (PGK) promoter operably linked to glutamine synthetase, amiRNA in 3' UTR) and “exceeded 3 g/L” in data set [4]. The antibody fucosylation result was “completely prevented” in data set [3] (weaker (PGK) promoter, amiRNA in GS 3' UTR, natural level around 80-85%) and “completely suppressed” in data set [4].
